# Target: Death receptor 4 (DR4) on primary human pancreatic stellate cells (human) (UniProt O00220)
# Assay: cell-based or functional assay
substance,measurement,value
"mapatumumab (human anti-DR4 antibody, Creative Biolabs)","caspase-3/7 activity (apoptosis marker), culture-activated PSCs, 10^3 ng/mL",1.27 fold

# — patent US20190119394A1
